# Several values for one entry are separate records, joined by “and”; a condition that tells them apart may be missing. Identical values can stand only once.
# Legend:
# FXIIIa [1] = biological target: T1, FXIIIa (Homo sapiens, UniProt P00488); assay: Variant peptides as inhibitors of the crosslinking of α2AP13-24 into fibrin; format: biochemical; conditions: peptides used as inhibitors
# T1 construct: purchased American Diagnostica
# T1 sequence (P00488 39-732 limits assumed): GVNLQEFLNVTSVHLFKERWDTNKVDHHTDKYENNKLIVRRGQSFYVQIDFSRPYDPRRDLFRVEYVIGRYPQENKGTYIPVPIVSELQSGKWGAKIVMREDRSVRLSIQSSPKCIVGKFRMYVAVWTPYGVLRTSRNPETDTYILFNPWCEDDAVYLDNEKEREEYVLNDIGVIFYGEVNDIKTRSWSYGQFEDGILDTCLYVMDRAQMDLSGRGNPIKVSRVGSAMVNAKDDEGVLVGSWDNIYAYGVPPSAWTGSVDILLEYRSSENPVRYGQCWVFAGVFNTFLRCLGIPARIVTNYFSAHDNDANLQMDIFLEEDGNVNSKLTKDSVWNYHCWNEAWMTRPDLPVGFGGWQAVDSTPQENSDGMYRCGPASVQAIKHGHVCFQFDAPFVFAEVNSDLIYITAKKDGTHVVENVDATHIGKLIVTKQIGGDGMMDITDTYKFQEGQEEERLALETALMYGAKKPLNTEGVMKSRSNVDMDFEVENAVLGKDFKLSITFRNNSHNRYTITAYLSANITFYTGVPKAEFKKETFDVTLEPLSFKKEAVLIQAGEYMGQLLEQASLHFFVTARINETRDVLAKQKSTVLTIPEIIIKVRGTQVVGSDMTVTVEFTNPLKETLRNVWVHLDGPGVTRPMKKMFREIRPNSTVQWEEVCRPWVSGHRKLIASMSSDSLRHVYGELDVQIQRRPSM
# Protocol: (§1) Experiments were performed to determine how long FXIIIa in clots could crosslink various substrates such as human ^125I -α2AP, α2AP13-24 (SEQ ID NO:2), and 5-(biotinamido)pentylamine, into fibrin. In a typical experiment, clots were prepared (50 μl final volume) in duplicate by combining fibrinogen (2 mg/ml final), CaCl2 (2 mM final), buffer (Tris-buffered saline pH 7.4) and thrombin (1 U/ml) and incubating at 37° C. Synchronous with the addition of thrombin, or up to 240 minutes afterwards, the FXIIIa substrates 5-(biotinamido)pentylamine (0.5 mM final), ^125I -α2AP (70 μg/ml final), and α2AP13-24 (0 to 1 mM final) were mixed and added to the clot. […] Crosslinked ^125I-α2AP was detected and quantitated by phosphorimaging. Samples containing crosslinked α2AP13-24 and pentylamine substrates were electroblotted to PVDF membranes and detected by ^125I-streptavidin followed by phosphorimaging or by streptavidin-peroxidase followed by the developing agents 5-bromo-4-chloro-3-indolyl phosphate-nitro blue tetrazolium using methods known in the art. In experiments examining the effect of specific amino acid residues on the crosslinking of the α2AP13-24 peptide (SEQ ID NO:2) to fibrin, crosslinking was detected by immunoblotting with an anti-peptide antibody directed against this epitope followed by ^125I-protein A and phosphorimaging. […]
# FXIIIa [2] = biological target: T1, FXIIIa; assay: Crosslinking of α2AP1-24 and variant peptides to fibrin clots; format: biochemical; conditions: 0.5 mM of each peptide clotted with human fibrinogen; compared to wild type α2AP1-24
# Protocol: A 0.5 mM concentration of each peptide was clotted with human fibrinogen. After electrophoresis of the solubilized, reduced clots on 7.5% SDS-PAGE gels and transfer to PVDF membranes, the extent of crosslinking of each peptide was determined by incubating the membranes with a polyclonal antibody directed against the amino-terminus of α2AP, followed by incubation in ^125I-protein A, and exposure in a phosphorimager. Each bar reflects phosphorimage quantification of the fibrin crosslinking α2AP1-24 and the variant peptides. The mean±SD pixel volume of the quantified blots are shown.
# (§2) Experiments were performed to determine how long FXIIIa in clots could crosslink various substrates such as human ^125I -α2AP, α2AP13-24 (SEQ ID NO:2), and 5-(biotinamido)pentylamine, into fibrin. In a typical experiment, clots were prepared (50 μl final volume) in duplicate by combining fibrinogen (2 mg/ml final), CaCl2 (2 mM final), buffer (Tris-buffered saline pH 7.4) and thrombin (1 U/ml) and incubating at 37° C. Synchronous with the addition of thrombin, or up to 240 minutes afterwards, the FXIIIa substrates 5-(biotinamido)pentylamine (0.5 mM final), ^125I -α2AP (70 μg/ml final), and α2AP13-24 (0 to 1 mM final) were mixed and added to the clot. In one set of control samples, FXIIIa was inhibited with iodoacetamide (10 mg/ml) prior to the addition of substrate; to another set, no substrate was added. After 2 hours of incubation at 37° C., iodoacetamide (10 mg/ml) was added to stop the reaction. The tubes were then centrifuged at 14,000 rpm for 2 minutes, washed and compressed in 1 ml saline to remove unbound proteins, and centrifuged again at 14,000 rpm for 2 minutes. After removal of the supernatant, the clots were solubilized in 100 μL of 9M urea, pH 9.0 at 37° C. for 60 minutes. Then 100 μl of SDS reducing sample buffer was added and the clots were placed at 85° C. for 30 minutes until fully solubilized. The samples were examined by SDS-PAGE. Crosslinked ^125I-α2AP was detected and quantitated by phosphorimaging. Samples containing crosslinked α2AP13-24 and pentylamine substrates were electroblotted to PVDF membranes and detected by ^125I-streptavidin followed by phosphorimaging or by streptavidin-peroxidase followed by the developing agents 5-bromo-4-chloro-3-indolyl phosphate-nitro blue tetrazolium using methods known in the art. In experiments examining the effect of specific amino acid residues on the crosslinking of the α2AP13-24 peptide (SEQ ID NO:2) to fibrin, crosslinking was detected by immunoblotting with an anti-peptide antibody directed against this epitope followed by ^125I-protein A and phosphorimaging. In some experiments, clots were formed by mixing 25 μl pooled human fresh frozen plasma with 25 μl 30 mM CaCl2 instead of using human fibrinogen.
# Although FXIIIa can crosslink a number of lysine analogs to glutamine sites in macromolecules such as fibrin, its specificity for crosslinking glutamine-containing substrates (acyl donors) such as α2AP to fibrin has not been defined. To examine specificity, a wild-type α2AP fragment spanning residues 1-24 (MEPLGWQLTSGPNQEQVSPLTLLK; SEQ ID NO:16) and a panel of α2AP variant peptides (corresponding to residues 1-24 with the exception that one residue is altered from the wild type sequence; SEQ ID NO:11, 12, 13, 14, 15) was created with mutations of residues that represented other potential crosslinking sites or residues that are conserved among different α2APS from different species. […]
# [3] = Activated partial thromboplastin time in heparinized ferrets; format: in vivo, ferret; conditions: heparin bolus 100 units/kg, throughout the experiment
# Protocol: All animals received weight-adjusted heparin at 100 units/kg (bolus), a dose sufficient to keep the activated partial thromboplastin time (aPTT) above 150 seconds throughout the procedure. TPA was given as a continuous infusion over 2 hours (1 mg/kg in 5 ml of normal saline). […] The thorax was dissected and all intrathoracic structures were removed for gamma counting to detect residual thrombi. The percentage of clot lysis was determined for each ferret by dividing the total residual radioactivity in the thorax by that in the initial thrombi. A total of 28 animals was studied; three were excluded because of anesthetic-related death, improper TPA infusion, and failed embolism.
# FXIIIa [4] = biological target: T1, FXIIIa; assay: FXIIIa catalytic half-life: crosslinking of substrates into fibrin clots of various ages; format: biochemical
# Protocol: as §2, with “In some experiments, clots were formed by mixing 25 μl pooled human fresh frozen plasma with 25 μl 30 mM CaCl2 instead of using human fibrinogen.” left out
# FXIIIa [5] = biological target: T1, FXIIIa; assay: Dose-dependent crosslinking of α2AP13-24 into fibrin clots; format: biochemical; conditions: purified human fibrinogen
# Protocol: as §1
# fibrinogen = assay: Residual fibrinogen level by sodium sulfite method; format: in vivo, ferret; conditions: ferrets, before and after treatment
# Protocol: FIG. 2 is a bar graph showing the effects of factor XIIIa activity and TPA on residual fibrinogen levels. Fibrinogen levels were measured in 25 ferrets by sodium sulfite precipitation and expressed as a percentage of the fibrinogen level prior to the experiments (“before study” level was defined as 100%). The percent residual fibrinogen level (mean±SD) is shown for each group of 5 ferrets at the end of the experiment. The following conditions were evaluated: Control, normal factor XIIIa activity, no TPA; F13-I, factor XIIIa inhibited, no TPA; TPA, TPA with normal factor XIIIa activity; TPA+F13-I, TPA with inhibited factor XIIIa activity; TPA+α2AP-I, TPA with inhibited α2 antiplasmin-fibrin crosslinking.
# Blood samples were collected on K3EDTA (0.15% solution, final concentration) with aprotinin (50 kallikrein units/ml). Platelet-poor plasma was obtained by centrifugation of whole blood and assayed for fibrinogen by a standard sodium sulfite method such as that described by Rampling et al. 1976, Clin Chim Acta. 67:43-52.
# pulmonary emboli = assay: Lysis of radiolabeled pulmonary emboli in ferrets; format: in vivo, ferret
# Text: Pulmonary embolisms were induced in ferrets using standard methods, e.g., that described in Butte et al., 1997, Circulation. 95:1886-1891). Male ferrets (weighing approximately 1 kg) were anesthetized with ketamine and acepromazine. After full anesthesia had been obtained, the jugular vein and carotid artery were exposed by an anterior midline incision and cannulated with 20G catheters. Pooled, citrated human plasma was mixed with ^125I-fibrinogen to achieve a specific activity of approximately 1,000,000 cpm/ml. Individual clots were formed by mixing ^125I-fibrinogen-labeled plasma (45 μl) with 2.5 μl of bovine thrombin (100 units/ml) and 2.5 μl of calcium chloride (0.4 M). […] The radioactive content of the clots was measured in a gamma counter immediately before injection. […] Successful embolization was evinced by the accumulation of radioactivity in the thorax.
# All animals received weight-adjusted heparin at 100 units/kg (bolus), a dose sufficient to keep the activated partial thromboplastin time (aPTT) above 150 seconds throughout the procedure. […] The percentage of clot lysis was determined for each ferret by dividing the total residual radioactivity in the thorax by that in the initial thrombi. […]
compound,measurement,setting,value
V17N: α2AP1-24 variant peptide containing mutation V17N (MEPLGWQLTSGPNQEQNSPLTLLK; listed as Homo sapiens),competition for crosslinking of α2AP13-24 into fibrin,FXIIIa [1],all peptides but Q14A and V17N competed for crosslinking
same,crosslinking of peptide to fibrin,FXIIIa [2],not efficiently crosslinked to fibrin
heparin,activated partial thromboplastin time (aPTT),[3],above 150 seconds
"O[C@H](CS)[C@H](O)CS (racemic) [DTT, dithiothreitol]",effect of reducing agent on crosslinking in old clots,"FXIIIa [4]; added to reaction mixtures, 2 or 4 hour old clots",restored the crosslinking of pentylamine or α2AP13-24 to fibrin clots
"MEPLGWQLTSGPNQAQVSPLTLLK (MEPLGWQLTSGPNQAQVSPLTLLK; listed as Homo sapiens) [E15A, α2AP1-24 variant peptide]",crosslinking of peptide to fibrin,FXIIIa [2],crosslinked into fibrin at rates comparable to that of the wild type
hirudin [reference compound],effect on α2AP13-24 peptide-fibrin crosslinking,FXIIIa [5],blocked α2AP13-24 peptide-fibrin crosslinking
tissue plasminogen activator [TPA],"residual fibrinogen level at end of study, percentage of initial value",fibrinogen,nonspecific degradation of fibrinogen did not occur
same,lysis of pulmonary emboli compared with other group,pulmonary emboli; FIGS. 1A and 1B group comparisons,significantly increased lysis
same,lysis of pulmonary emboli (mean±SD),"pulmonary emboli; TPA 1 mg/kg infused over 2 hours, heparin 100 units/kg, 4 hours after embolization",32.3±7.7% and 32.2±7.7%
"MEPLGWQLTSGPNQEQVSPLTNLK (listed as Homo sapiens) [L22N, α2AP1-24 variant peptide]",crosslinking of peptide to fibrin,FXIIIa [2],crosslinked into fibrin at rates comparable to that of the wild type
"NCCCCCNC(=O)CCCC[C@@H]1SC[C@@H]2NC(=O)N[C@@H]21 [pentylamine-biotin, 5-(biotinamido)pentylamine]",residual FXIIIa crosslinking of substrate,FXIIIa [4]; substrate added to 2 or 4 hour old clots,little residual FXIIIa crosslinking
Q14A: α2AP1-24 variant peptide containing mutation Q14A (MEPLGWQLTSGPNAEQVSPLTLLK; listed as Homo sapiens),competition for crosslinking of α2AP13-24 into fibrin,FXIIIa [1],all peptides but Q14A and V17N competed for crosslinking
same,crosslinking of peptide to fibrin,FXIIIa [2],not efficiently crosslinked to fibrin
"MEPLGWQLTSGPNQEAVSPLTLLK (listed as Homo sapiens) [Q16A, α2AP1-24 variant peptide]",crosslinking of peptide to fibrin,FXIIIa [2],crosslinked into fibrin at rates comparable to that of the wild type

# — US6534035B1, “Methods of inhibiting clot formation” (President and Fellows of Harvard College, priority 1998, dated 2003)
